Experimental data as given in paper PMC10853514.

Molecular target: human myosin VI heavy chain, full length, containing both the large-insertion (LI) and small-insertion (SI) regions (human) (UniProt Q9UM54)
Test: cryo-EM structure; single-particle cryo-EM of myosin VI/CaM in PB, TB + AMPPNP and PB + ATP, the three datasets combined; autoinhibited state, 3.54 Å (4.14 Å map with the SAH-E)

Sequence of human myosin VI heavy chain, full length, containing both the large-insertion (LI) and small-insertion (SI) regions (human) (Q9UM54 other isoform, or with tags, fused parts or gaps): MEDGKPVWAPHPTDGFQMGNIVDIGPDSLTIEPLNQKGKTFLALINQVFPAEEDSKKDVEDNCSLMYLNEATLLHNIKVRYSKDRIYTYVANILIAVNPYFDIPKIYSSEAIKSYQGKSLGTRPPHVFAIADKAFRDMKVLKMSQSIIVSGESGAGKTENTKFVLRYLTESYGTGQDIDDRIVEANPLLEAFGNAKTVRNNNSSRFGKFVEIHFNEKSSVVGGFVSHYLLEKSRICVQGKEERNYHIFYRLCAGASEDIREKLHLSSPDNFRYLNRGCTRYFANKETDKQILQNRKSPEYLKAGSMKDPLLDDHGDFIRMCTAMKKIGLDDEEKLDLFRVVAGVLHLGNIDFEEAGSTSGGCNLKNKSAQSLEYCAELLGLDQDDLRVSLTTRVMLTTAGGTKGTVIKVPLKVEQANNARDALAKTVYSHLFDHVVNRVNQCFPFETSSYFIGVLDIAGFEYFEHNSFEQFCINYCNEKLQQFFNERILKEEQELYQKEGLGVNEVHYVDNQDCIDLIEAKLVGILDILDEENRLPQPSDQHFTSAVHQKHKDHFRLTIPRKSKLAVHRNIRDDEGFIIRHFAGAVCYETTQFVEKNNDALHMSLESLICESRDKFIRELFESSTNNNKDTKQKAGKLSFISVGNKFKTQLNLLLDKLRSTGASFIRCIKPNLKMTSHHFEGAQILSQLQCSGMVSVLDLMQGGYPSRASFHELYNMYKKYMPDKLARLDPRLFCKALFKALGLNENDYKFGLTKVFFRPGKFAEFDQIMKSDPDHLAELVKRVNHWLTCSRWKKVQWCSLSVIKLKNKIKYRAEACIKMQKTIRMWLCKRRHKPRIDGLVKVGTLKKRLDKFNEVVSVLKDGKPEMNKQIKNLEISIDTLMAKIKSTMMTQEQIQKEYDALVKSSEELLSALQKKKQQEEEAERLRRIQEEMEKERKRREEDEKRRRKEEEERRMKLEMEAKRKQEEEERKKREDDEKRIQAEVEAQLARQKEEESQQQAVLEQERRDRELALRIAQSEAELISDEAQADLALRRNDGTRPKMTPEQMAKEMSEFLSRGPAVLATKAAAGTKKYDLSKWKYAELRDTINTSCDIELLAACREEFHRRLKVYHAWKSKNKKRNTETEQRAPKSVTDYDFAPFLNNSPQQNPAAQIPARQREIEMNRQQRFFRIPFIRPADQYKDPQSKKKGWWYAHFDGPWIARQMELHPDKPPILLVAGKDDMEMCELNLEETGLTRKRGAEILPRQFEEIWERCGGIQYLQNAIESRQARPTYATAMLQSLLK

stoichiometry N: 2
Substance: calmodulin (CaM), light chain of myosin VI (from UniProt P0DP23 1-149) (natural protein)
